This data set concerns the molecule itself. In words: SEC; gel filtration on a Superdex 75 column; Streptococcus suis FakB2 (~33 kDa, known monomer) as size control. In general terms: SEC sorts molecules by how far they enter the pores of the column.

B1: Pseudomonas aeruginosa BioH (PA0502) S66A (enzyme)
chain: MRDHLILLPGWGLGSAPLEPLRDALHEREPHLNVLIEPLPSLDDAADWLDELDDNLPRDSWLAGWALGGMLAGELAARRGDDCRGLLTLASNPCFRVREDWPNAMPAETFEDFFEAFLLEPHLTRKRFTLLVSQGARDPRTLARQLQVALPQLEREALVAGLQLLGQLDTRAALENFRGPQLHLFAEADALVPLAAAEALLEWLPDVEVSTLAASHGLPLECPDEVAGAILRFLREGDDA
notes: BioH (PA0502), Pseudomonas aeruginosa PAO1, catalytic triad mutant; Purification is described only for the wild type; also called BioH(S66A); source: E. coli, from pET28a::bioH(S66A), purified
Consider B1, for which the binding result is “binds”.

B2: Pseudomonas aeruginosa BioH (PA0502) D189A (enzyme)
chain: MRDHLILLPGWGLGSAPLEPLRDALHEREPHLNVLIEPLPSLDDAADWLDELDDNLPRDSWLAGWSLGGMLAGELAARRGDDCRGLLTLASNPCFRVREDWPNAMPAETFEDFFEAFLLEPHLTRKRFTLLVSQGARDPRTLARQLQVALPQLEREALVAGLQLLGQLDTRAALENFRGPQLHLFAEAAALVPLAAAEALLEWLPDVEVSTLAASHGLPLECPDEVAGAILRFLREGDDA
notes: BioH (PA0502), Pseudomonas aeruginosa PAO1, catalytic triad mutant; Purification is described only for the wild type; also called BioH(D189A); source: E. coli, from pET28a::bioH(D189A), purified
Regarding B2, the binding result was “binds”.

These data come from PMC9894557, “The opportunistic pathogen Pseudomonas aeruginosa exploits bacterial biotin synthesis pathway to benefit its infectivity” (PLOS Pathogens, 2023).
